According to publication doi:10.1101/2020.05.06.080465:

Biological target: 19S proteasomal subunit (human (endogenous in HeLa))
Assay: SEC

percent of the ADRM1 signal associated with 19S: 15%
Substance: ubiquitin receptor ADRM1 (from UniProt Q16186 1-407) (natural protein)
